Results reported in publication PMC7657459, “A second hybrid-binding domain modulates the activity of Drosophila ribonuclease H1”.

Legend:
[1] = molecular target: T1, RNase H1 D252N (Drosophila melanogaster, UniProt A1Z769 17-333, D252N); assay: EMSA; 1 or 10 uM protein; BLI: 30 mM Tris-HCl pH 8.0, 100 mM KCl, 10% glycerol, 10 mM EDTA, 2 mM DTT, 400 ug/ml BSA, 30 C; EMSA: 25 mM Tris-HCl pH 8.0, 25 mM KCl, 1 mM DTT, 10 mM EDTA, 20 ug/ml BSA, room temperature, 30 min; details: protein: recombinant; tags: C-terminal 6xHis (+2 vector residues); label: 5' 32P; single strand
T1 sequence: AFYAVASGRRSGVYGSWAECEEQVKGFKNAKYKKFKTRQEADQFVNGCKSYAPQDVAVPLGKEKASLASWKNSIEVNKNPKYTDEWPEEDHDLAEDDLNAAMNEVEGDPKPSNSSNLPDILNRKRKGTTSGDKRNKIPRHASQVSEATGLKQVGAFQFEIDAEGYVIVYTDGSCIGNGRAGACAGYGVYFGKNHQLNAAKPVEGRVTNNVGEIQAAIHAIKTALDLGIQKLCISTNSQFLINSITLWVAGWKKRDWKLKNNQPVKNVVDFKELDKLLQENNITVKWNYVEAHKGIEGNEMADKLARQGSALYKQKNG

[2] = molecular target: T2, RNase H1 ΔII/III D252N (Drosophila melanogaster, UniProt A1Z769 17-333, D252N;del66-141); assay: EMSA; BLI: 30 mM Tris-HCl pH 8.0, 100 mM KCl, 10% glycerol, 10 mM EDTA, 2 mM DTT, 400 ug/ml BSA, 30 C; EMSA: 25 mM Tris-HCl pH 8.0, 25 mM KCl, 1 mM DTT, 10 mM EDTA, 20 ug/ml BSA, room temperature, 30 min; details: protein: recombinant, tags: C-terminal 6xHis, blunt
T2 sequence: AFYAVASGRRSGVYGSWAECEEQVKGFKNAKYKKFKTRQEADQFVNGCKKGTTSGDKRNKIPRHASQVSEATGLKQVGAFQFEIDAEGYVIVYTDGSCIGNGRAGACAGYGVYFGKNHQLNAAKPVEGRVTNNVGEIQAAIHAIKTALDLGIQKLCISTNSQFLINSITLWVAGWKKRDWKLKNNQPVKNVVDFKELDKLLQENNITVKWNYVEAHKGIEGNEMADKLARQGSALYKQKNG

[3] = molecular target: T3, RNase H1 ΔI-III D252N (Drosophila melanogaster, UniProt A1Z769 142-333, D252N); assay: EMSA; no supershift; BLI: 30 mM Tris-HCl pH 8.0, 100 mM KCl, 10% glycerol, 10 mM EDTA, 2 mM DTT, 400 ug/ml BSA, 30 C; EMSA: 25 mM Tris-HCl pH 8.0, 25 mM KCl, 1 mM DTT, 10 mM EDTA, 20 ug/ml BSA, room temperature, 30 min; details: protein: recombinant; tags: C-terminal 6xHis; blunt
T3 sequence: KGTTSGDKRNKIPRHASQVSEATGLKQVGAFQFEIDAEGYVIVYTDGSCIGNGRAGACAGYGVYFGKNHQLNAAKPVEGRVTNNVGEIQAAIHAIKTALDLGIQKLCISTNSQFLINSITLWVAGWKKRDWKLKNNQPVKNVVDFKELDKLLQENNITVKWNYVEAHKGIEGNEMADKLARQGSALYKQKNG

[4] = molecular target: T4, RNase H1 ΔI/II D252N (Drosophila melanogaster, UniProt A1Z769 87-333, D252N); assay: as above; details: protein: recombinant; tags: C-terminal 6xHis; blunt
T4 sequence: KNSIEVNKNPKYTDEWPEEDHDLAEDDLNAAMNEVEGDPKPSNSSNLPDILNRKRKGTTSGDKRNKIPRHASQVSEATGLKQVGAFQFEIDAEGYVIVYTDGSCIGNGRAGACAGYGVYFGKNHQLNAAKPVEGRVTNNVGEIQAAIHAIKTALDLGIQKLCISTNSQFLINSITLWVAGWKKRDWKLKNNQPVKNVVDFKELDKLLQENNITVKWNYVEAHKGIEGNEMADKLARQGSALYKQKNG

[5] = molecular target: T5, RNase H1 ΔIV/V (Drosophila melanogaster, UniProt A1Z769 17-142); assay: EMSA; supershift at high protein; BLI: 30 mM Tris-HCl pH 8.0, 100 mM KCl, 10% glycerol, 10 mM EDTA, 2 mM DTT, 400 ug/ml BSA, 30 C; EMSA: 25 mM Tris-HCl pH 8.0, 25 mM KCl, 1 mM DTT, 10 mM EDTA, 20 ug/ml BSA, room temperature, 30 min; details: protein: recombinant; tags: C-terminal 6xHis; blunt
T5 sequence: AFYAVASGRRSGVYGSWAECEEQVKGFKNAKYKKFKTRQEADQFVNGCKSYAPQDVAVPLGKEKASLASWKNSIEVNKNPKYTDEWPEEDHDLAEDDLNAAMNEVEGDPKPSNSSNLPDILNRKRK

[6] = molecular target: T6, RNase H1 ΔIII-V (Drosophila melanogaster, UniProt A1Z769 17-87); assay: as above; details: protein: recombinant; tags: C-terminal 6xHis; blunt
T6 sequence: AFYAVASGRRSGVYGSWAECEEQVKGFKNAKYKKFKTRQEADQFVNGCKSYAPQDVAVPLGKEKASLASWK

[7] = molecular target: T7, RNase H1 ΔII-V (Drosophila melanogaster, UniProt A1Z769 17-65); assay: as above; details: protein: recombinant; tags: C-terminal 6xHis; blunt
T7 chain: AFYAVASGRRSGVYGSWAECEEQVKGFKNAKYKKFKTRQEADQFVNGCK

[8] = molecular target: T1, RNase H1 D252N; assay: EMSA; second shift at high protein; BLI: 30 mM Tris-HCl pH 8.0, 100 mM KCl, 10% glycerol, 10 mM EDTA, 2 mM DTT, 400 ug/ml BSA, 30 C; EMSA: 25 mM Tris-HCl pH 8.0, 25 mM KCl, 1 mM DTT, 10 mM EDTA, 20 ug/ml BSA, room temperature, 30 min; details: protein: recombinant; tags: C-terminal 6xHis (+2 vector residues); blunt
[9] = molecular target: Dm RNase H1 (amino acids 17-333), bacterially expressed (Drosophila melanogaster)
[10] = molecular target: T5, RNase H1 ΔIV/V; assay: BLI; BLI: 30 mM Tris-HCl pH 8.0, 100 mM KCl, 10% glycerol, 10 mM EDTA, 2 mM DTT, 400 ug/ml BSA, 30 C; EMSA: 25 mM Tris-HCl pH 8.0, 25 mM KCl, 1 mM DTT, 10 mM EDTA, 20 ug/ml BSA, room temperature, 30 min; details: protein: recombinant, tags: C-terminal 6xHis, blunt
[11] = molecular target: T6, RNase H1 ΔIII-V; assay: as above; details: protein: recombinant, tags: C-terminal 6xHis, blunt
[12] = molecular target: T7, RNase H1 ΔII-V; assay: as above; details: protein: recombinant, tags: C-terminal 6xHis, blunt
[13] = molecular target: T1, RNase H1 D252N; assay: EMSA; BLI: 30 mM Tris-HCl pH 8.0, 100 mM KCl, 10% glycerol, 10 mM EDTA, 2 mM DTT, 400 ug/ml BSA, 30 C; EMSA: 25 mM Tris-HCl pH 8.0, 25 mM KCl, 1 mM DTT, 10 mM EDTA, 20 ug/ml BSA, room temperature, 30 min; details: protein: recombinant, tags: C-terminal 6xHis (+2 vector residues), blunt

B1: 30-nt ssDNA (ssDNA)
DNA: AAGTAGGGCACGCTATAGTTAGTCTTCGCG
- binding result [1]: no binding

B2: 30-bp RNA/DNA hybrid (EMSA) (DNA:RNA)
RNA: CGCGAAGACUAACUAUAGCGUGCCCUACUU
DNA: B1 DNA
- binding result [2]: binds
- binding result [3]: binds
- binding result [4]: binds
- binding result [5]: binds
- binding result [6]: binds
- binding result [7]: binds
- binding result [8]: binds

B3: Drosophila mitochondrial single-stranded DNA-binding protein, purified (natural protein)
chain: ATTTTAAAPAKVEKTVNTVTILGRVGADPQLRGSQEHPVVTFSVATHTNYKYENGDWAQRTDWHRVVVFKPNLRDTVLEYLKKGQRTMVQGKITYGEITDQQGNQKTSTSIIADDVLFFRDANN
- nuclease activity of 0.1 nM Dm RNase H1 on radiolabelled 30-bp RNA/DNA hybrid pre-incubated with mtSSB (0-500 nM), without ssDNA; densitometry [9]: 55%

B4: 30-bp dsRNA (dsRNA)
RNA 1: AAGUAGGGCACGCUAUAGUUAGUCUUCGCG
RNA 2: B2 RNA
- binding result ([10]; label: 5' biotin on S2 for BLI): no binding
- binding result ([11]; label: 5' biotin on S2 for BLI): no binding
- binding result ([12]; label: 5' biotin on S2 for BLI): no binding
- binding result ([2]; label: 5' biotin on S2 for BLI): binds
- binding result ([13]; label: 5' biotin on S2 for BLI): binds

B5: 30-nt ssRNA (ssRNA)
RNA: B2 RNA
- binding result [1]: no binding

B6: 30-bp dsDNA (dsDNA)
DNA 1: B1 DNA
DNA 2: CGCGAAGACTAACTATAGCGTGCCCTACTT
- binding result ([10]; label: 5' biotin on S3 for BLI): no binding
- binding result ([11]; label: 5' biotin on S3 for BLI): no binding
- binding result ([12]; label: 5' biotin on S3 for BLI): no binding
- binding result ([2]; label: 5' biotin on S3 for BLI): binds
- binding result ([13]; label: 5' biotin on S3 for BLI): binds
